3 molecules from US20120171240A1 (UNIVERSITY OF LOUISVILLE RESEARCH FOUNDATION, published 2012) can be followed below.

The target in assay [1] is 4-1BB receptor on mouse T cells (mouse) (UniProt P20334). Description: cell-based or functional assay.
Assay [2] has as its target human CD40 receptor (human, UniProt P25942 21-277). Description: cell-based or functional assay.

Sequence of human CD40 receptor (P25942 21-277): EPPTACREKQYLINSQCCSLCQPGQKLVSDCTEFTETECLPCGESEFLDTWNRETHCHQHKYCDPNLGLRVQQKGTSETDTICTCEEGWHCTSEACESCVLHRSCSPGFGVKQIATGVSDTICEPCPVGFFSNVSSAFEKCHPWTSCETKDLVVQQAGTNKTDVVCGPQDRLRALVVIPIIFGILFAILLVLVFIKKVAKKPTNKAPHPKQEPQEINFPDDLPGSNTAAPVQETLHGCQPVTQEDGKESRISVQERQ
Sequence of 4-1BB receptor on mouse T cells (mouse) (P20334 24-256): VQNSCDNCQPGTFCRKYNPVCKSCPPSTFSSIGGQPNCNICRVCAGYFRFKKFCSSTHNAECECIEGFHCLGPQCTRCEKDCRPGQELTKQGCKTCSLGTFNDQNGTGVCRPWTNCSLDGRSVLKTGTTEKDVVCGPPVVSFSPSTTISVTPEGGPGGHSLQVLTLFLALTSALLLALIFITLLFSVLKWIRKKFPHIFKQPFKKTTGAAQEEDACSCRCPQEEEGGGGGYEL

In the case of CSA-4-1BBL fusion protein (ligand), in assay [1], the proliferation of CFSE-labeled CD4+CD25- (SP) T cells, percent dividing turned out to be 60% and the proliferation of SP T cells in co-culture with CD4+CD25+ (DP) Treg cells, percent dividing amounted to 34%.
With “commercially available trimeric recombinant human CD40L (rhsCD40L) (from UniProt P29965 116-261) (ligand)”, the iNOS production, Western blot, IFN-γ primed CD40KO-human CD40 macrophages in assay [2] worked out at 6 fold.

B1: CSA-hCD40L (fusion of core streptavidin and the extracellular domain of human CD40L) (ligand)
chain: RSHHHHHHITGTWYNQLGSTFIVTAGADGALTGTYESAVGNAESRYVLTGRYDSAPATDGSGTALGWTVAWKNNYRNAHSATTWSGQYVGGAEARINTQWLLTSGATEANAWKSTLVGHDTFTKVKPSAASSEFLDKIEDERNLHEDFVFMKTIQRCNTGERSLSLLNCEEIKSQFEGFVKDIMLNKEETKKENSFEMQKGDQNPQIAAHVISEASSKTTSVLQWAEKGYYTMSNNLVTLENGKQLTVKRQGLYYIYAQVTFCSNREASSQAPFIASLCLKSPGRFERILLRAANTHSSAKPCGQQSIHLGGVFELQPGASVFVNVTDPSQVSHGTGFTSFGLLKL
As for B1, in assay [2], the “IL-6 mRNA, RNAse protection assay, murine CD40KO macrophage line expressing human CD40” value turned out to be 2.8 fold; the “human IL-10 production (printed so; summed up as IL-1β) by human monocytes, ELISA, 18 h” value was 5 fold; the “iNOS production, Western blot, IFN-γ primed CD40KO-human CD40 macrophages” value was 9 fold.
